The values that follow come from patent US20140271682, “HUMAN HOMEOBOX GENE VENTX AND MACROPHAGE TERMINAL DIFFERENTIATION AND ACTIVATION, COMPOSITIONS AND METHODS THEREOF” (published 2014).

The series deals with T1, VentX (Homo sapiens, UniProt O95231 SEQ:1-258).
T1 sequence: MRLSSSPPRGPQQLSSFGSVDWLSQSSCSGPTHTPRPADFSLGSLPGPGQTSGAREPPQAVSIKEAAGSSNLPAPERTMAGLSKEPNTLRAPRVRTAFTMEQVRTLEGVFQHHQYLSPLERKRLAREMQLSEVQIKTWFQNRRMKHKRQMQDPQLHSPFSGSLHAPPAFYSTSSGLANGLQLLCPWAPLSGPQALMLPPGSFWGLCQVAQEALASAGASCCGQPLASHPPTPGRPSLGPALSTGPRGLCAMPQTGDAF
Briefly: EMSA; fluorescence-based EMSA kit. Conditions: tags: pCS2-VentX, TNT reticulocyte lysate. How it is done:
Lysate Systems, Promega). […] Gel shift assay was performed with a fluorescence-based Electrophoretic Mobility Shift Assay (EMSA) Kit from Invitrogen following the manufacturer's instruction. The following double-stranded oligonucleotides were used in the experiments: 5′-[…]-3′ (wild type M-CSFR probe, putative homeodomain binding sequence is in bold and underlined); 5′-[…]-3′ (mutant M-CSFR);

B1: M-CSFR promoter probe wild type (dsDNA)
DNA 1: CTGCGTCTCTAAAATAATAATAATAAATTTTTAAAAGATATGC
DNA 2: GCATATCTTTTAAAAATTTATTATTATTATTTTAGAGACGCAG
On to B1, for which the binding result is “binds”.
